Reference: article PMC12529927, “Functional microRNA targeting without seed pairing”
Residue numbers refer to the chain shown, from its start.

What was measured:
[1] = target: T1, AGO2 (loaded with guide RNA) (Homo sapiens, UniProt Q9UKV8 1-859); test: filter binding; modest boost over m11_23; 18 mM HEPES pH 7.4, 100 mM K-acetate, 1 mM Mg-acetate, 0.01% IGEPAL, 0.01 mg/mL yeast tRNA, 5 mM DTT, BSA, glycerol, 37 C, 4 h, 1-5 pM target; kinetics with 10; details: protein: recombinant; tags: 3xFLAG-SUMOEu1 (removed by SENPEuB cleavage); label: 32P target; g11-23 and g2-6 paired, offset +2
T1 sequence (Q9UKV8 whole entry): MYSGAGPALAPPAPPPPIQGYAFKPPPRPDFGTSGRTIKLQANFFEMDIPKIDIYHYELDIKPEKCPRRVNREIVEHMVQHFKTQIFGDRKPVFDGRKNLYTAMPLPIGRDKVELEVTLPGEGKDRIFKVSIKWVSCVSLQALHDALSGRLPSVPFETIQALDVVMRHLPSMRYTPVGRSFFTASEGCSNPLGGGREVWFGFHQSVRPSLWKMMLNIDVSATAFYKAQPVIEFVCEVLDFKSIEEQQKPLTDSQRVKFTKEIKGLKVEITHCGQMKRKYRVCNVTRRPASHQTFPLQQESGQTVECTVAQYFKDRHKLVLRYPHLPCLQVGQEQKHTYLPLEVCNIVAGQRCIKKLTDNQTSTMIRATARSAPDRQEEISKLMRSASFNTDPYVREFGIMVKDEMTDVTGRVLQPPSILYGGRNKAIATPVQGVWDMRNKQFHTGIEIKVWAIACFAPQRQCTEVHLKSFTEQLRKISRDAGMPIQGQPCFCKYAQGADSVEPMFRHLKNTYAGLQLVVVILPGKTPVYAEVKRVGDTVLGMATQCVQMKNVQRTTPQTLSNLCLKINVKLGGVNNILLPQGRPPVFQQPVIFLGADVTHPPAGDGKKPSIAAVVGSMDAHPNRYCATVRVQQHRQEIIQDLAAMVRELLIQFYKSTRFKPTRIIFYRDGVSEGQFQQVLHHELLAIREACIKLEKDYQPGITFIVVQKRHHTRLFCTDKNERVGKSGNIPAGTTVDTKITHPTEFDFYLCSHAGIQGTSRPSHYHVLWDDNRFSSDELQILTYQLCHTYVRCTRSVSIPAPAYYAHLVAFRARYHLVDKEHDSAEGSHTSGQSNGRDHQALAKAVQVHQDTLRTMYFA

[2] = target: T1, AGO2 (loaded with guide RNA); test: filter binding; length-matched; slightly weaker than m2_6; 18 mM HEPES pH 7.4, 100 mM K-acetate, 1 mM Mg-acetate, 0.01% IGEPAL, 0.01 mg/mL yeast tRNA, 5 mM DTT, BSA, glycerol, 37 C, 4 h, 1-5 pM target; kinetics with 10; details: protein: recombinant; tags: 3xFLAG-SUMOEu1 (removed by SENPEuB cleavage); label: 32P target; g11-23 and g2-5 paired, offset +2
[3] = target: T1, AGO2 (loaded with guide RNA); test: filter binding; no boost over m9_22; 18 mM HEPES pH 7.4, 100 mM K-acetate, 1 mM Mg-acetate, 0.01% IGEPAL, 0.01 mg/mL yeast tRNA, 5 mM DTT, BSA, glycerol, 37 C, 4 h, 1-5 pM target; kinetics with 10; details: protein: recombinant, tags: 3xFLAG-SUMOEu1 (removed by SENPEuB cleavage), label: 32P target, offset +3
[4] = target: T1, AGO2 (loaded with guide RNA); test: filter binding; modest boost over m9_22; 18 mM HEPES pH 7.4, 100 mM K-acetate, 1 mM Mg-acetate, 0.01% IGEPAL, 0.01 mg/mL yeast tRNA, 5 mM DTT, BSA, glycerol, 37 C, 4 h, 1-5 pM target; kinetics with 10; details: protein: recombinant, tags: 3xFLAG-SUMOEu1 (removed by SENPEuB cleavage), label: 32P target, offset +3

B1: miR-155 mut / m11_23|+2|m2_6 (mixed)
RNA 1: UUCGUGCUAAUCGUGAUAGGGGU
RNA 2: UUUUACCCCUAUCACGACCUUUUCACGAUUUU
modifications: 5'-phosphate guide
[1]
  binding result: binds

B2: miR-155 mut / m11_23|+2|m2_5 (repeat) (mixed)
RNA 1: UUCGUGCUAAUCGUGAUAGGGGU
RNA 2: B1 RNA 2 with C24U
modifications: 5'-phosphate guide
[2]
  binding result: binds

B3: miR-124 mut / m9_22|+3|m2 (mixed)
RNA 1: UCUGGCUCGCGGUGAAUGCCAA
RNA 2: UUUUUUGGCAUUCACCGCUUUUUUUUUGUUUU
modifications: 5'-phosphate guide
[3]; g9-22 and g2 paired
  binding result: binds

B4: miR-124 mut / m9_22|+3|m2_5 (mixed)
RNA 1: UCUGGCUCGCGGUGAAUGCCAA
RNA 2: B3 RNA 2 with U25C, U26C, U27A
modifications: 5'-phosphate guide
[4]; g9-22 and g2-5 paired
  binding result: binds

B5: miR-124 mut / m9_22|+3|m2_3 (mixed)
RNA 1: UCUGGCUCGCGGUGAAUGCCAA
RNA 2: B3 RNA 2 with U27A
modifications: 5'-phosphate guide
[3]; g9-22 and g2-3 paired
  binding result: binds

B6: miR-124 mut / m9_22|+3|m2_4 (mixed)
RNA 1: UCUGGCUCGCGGUGAAUGCCAA
RNA 2: B3 RNA 2 with U26C, U27A
modifications: 5'-phosphate guide
[4]; g9-22 and g2-4 paired
  binding result: binds
